# From IntAct's records for PubMed 19162005
# B1: Regulator of cell cycle RGCC (Homo sapiens), Q9H4X1-2 (parent)
# chain: MKPPAEDLSDALCEFDAVLADFASPFHERHFHYEEHLERMKRRSSASVSDSSGFSDSESADSLYRNSFSFSDEKLNSPTDSTPALLSATVTPQKAKLGDTKELEAFIADLDKTLASM
# Variants of: B1
# Details: with akt1_human AKT1, P31749
# Sequence of akt1_human AKT1, P31749 (P31749 whole entry): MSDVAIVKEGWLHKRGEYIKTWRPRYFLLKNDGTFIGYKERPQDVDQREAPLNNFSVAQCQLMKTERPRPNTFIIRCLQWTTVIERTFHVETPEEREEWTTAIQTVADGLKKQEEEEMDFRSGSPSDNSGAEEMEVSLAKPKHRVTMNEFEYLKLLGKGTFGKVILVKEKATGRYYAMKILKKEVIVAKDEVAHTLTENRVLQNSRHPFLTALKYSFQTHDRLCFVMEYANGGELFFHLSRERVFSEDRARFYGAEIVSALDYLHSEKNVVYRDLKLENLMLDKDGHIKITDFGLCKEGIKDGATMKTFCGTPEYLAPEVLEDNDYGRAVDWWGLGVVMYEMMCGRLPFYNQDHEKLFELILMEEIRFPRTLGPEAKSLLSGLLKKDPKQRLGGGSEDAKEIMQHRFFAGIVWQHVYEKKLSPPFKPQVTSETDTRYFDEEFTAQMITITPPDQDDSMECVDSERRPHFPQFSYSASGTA
row,Variant,effect of a mutation on the interaction
1,MKPPAEDLSDALCEFDAVLADFASPFHERHFHYEEHLERMKRRSAAAVSDSSGFSDSESADSLYRNSFSFSDEKLNSPTDSTPALLSATVTPQKAKLGDTKELEAFIADLDKTLASM [S45A;S47A],disrupting interaction
